Source: patent US20120282173A1 (FORERUNNER PHARMA RESEARCH, published 2012)

Key:
[1] = target: T1, HB-EGF expressed on the cell membrane (proHB-EGF), from pMCN_HB-EGF in DG44 and SKOV-3 cells or intrinsic in … (human, UniProt Q99075 20-208); experiment: FACS on HB-EGF_DG44 cells, FITC-labeled anti-human IgG, Geo-Mean against concentration; the text says ED50, about
T1 construct: Full-length human HB-EGF without the cleavage-site mutation

[2] = target: T2, active-form HB-EGF protein (R&D Systems, Inc., 259-HE) (human, UniProt Q99075 63-148); experiment: ELISA on plate coated with 1 ug/mL HB-EGF protein (R&D 259-HE), AP-labeled anti-human IgG; the text says ED50, about
T2 construct: Bought protein; also called sHB-EGF; secretory HB-EGF

[3] = target: T2, active-form HB-EGF protein (R&D …); experiment: cell-based or functional assay
[4] = target: proHB-EGF mutated at the protease cleavage site, expressed on Ba/F3 cells (HB-EGF_Ba/F3) (human) (UniProt Q99075); experiment: FACS, hybridoma culture supernatant on HB-EGF_Ba/F3 cells, EXP. 1 (no-mAb 19.1)
[5] = target: proHB-EGF mutated at the protease cleavage site, expressed on Ba/F3 cells (HB-EGF_Ba/F3) (human) (UniProt Q99075); experiment: FACS, hybridoma culture supernatant on HB-EGF_Ba/F3 cells, EXP. 2 (no-mAb 6.9)
[6] = target: T1, HB-EGF expressed on the cell membrane …; experiment: cell-based or functional assay

T1 sequence (Q99075 20-208 limits assumed): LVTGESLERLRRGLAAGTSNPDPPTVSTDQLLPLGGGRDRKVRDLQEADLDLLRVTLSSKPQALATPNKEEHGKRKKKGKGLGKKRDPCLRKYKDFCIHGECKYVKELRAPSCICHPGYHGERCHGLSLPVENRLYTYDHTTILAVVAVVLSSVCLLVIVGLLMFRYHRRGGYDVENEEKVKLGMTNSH
T2 sequence (Q99075 63-148 limits assumed): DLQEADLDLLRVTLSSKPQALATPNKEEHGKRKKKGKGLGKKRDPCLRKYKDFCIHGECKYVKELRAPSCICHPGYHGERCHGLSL

B1: chHE39, human chimeric antibody derived from HE39 antibody (antibody, V domains shown)
VH: EVQLQQSGPELMKPGASVKMSCKASGYIFTDYYMNWVKQSHGKSLEWIGRVNPNNGGTSYSQKFKDKATLTVDKSLNTAYMQVNSLTSEDSAVYYCARIYYGGSDWGQGTTLTVSS
VL: EIVMTQTPLSLSVTIGQPASISCKSSQSLLYTTGKTYLNWLQQRPGQAPKHLMYQVSKLVPGIPDRFSGSGSETDFTLKISRVEAEDLGVYYCLQGTYYPHTFGSGTKLEIKR
notes: Mouse HE39 variable regions linked to human IgG1 constant regions
EC50 [1]: 5.3 nM
EC50 [2]: 0.42 nM

B2: HC-15 antibody (antibody, V domains shown)
VH: EVQLQQSGPELVKPGASVKISCKASGYSFTGYYMHWVKQSPEKRLEWIGEINPRTGITTYNQKFKAKATLTVDKSSSTAYMQLKSLTSEDSAVYYCARVGSSGPFTYWGQGTLVTVSA
VL: DIVMTQSPSSLSVSAGDKVTMSCKSSQSLLNSRNQKNYLAWYQQKPWQPPKLLIYGASTRESGVPDRFTGSGSGTDFTLTISSVQAEDLAVYYCQNDYSYPFTFGTGTKLEIK
EC50 of the growth-inhibiting effect on EGFR_Ba/F3 cells [3]: 3.8 nM
FACS (GEO-mean) [4]: 594 GEO-mean
FACS (GEO-mean) [5]: 234 GEO-mean

B3: chHC15, human chimeric antibody derived from HC15 antibody (antibody, human IgG1, kappa, V domains shown)
VH: EVQLQQSGPELVKPGASVKISCKASGYSFTGYYMHWVKQSPEKRLEWIGEINPRTGITTYNQKFKAKATLTVDKSSSTAYMQLKSLTSEDSAVYYCARVGSSGPFTYWGQGTLVTVSA
VL: DIVMTQSPSSLSVSAGDKVTMSCKSSQSLLNSRNQKNYLAWYQQKPWQPPKLLIYGASTRESGVPDRFTGSGSGTDFTLTISSVQAEDLAVYYCQNDYSYPFTFGTGTKLEIKR
EC50 [1]: 3.3 nM
EC50 [2]: 0.21 nM

B4: saporin-labeled HC-15 antibody (HC-SAP) (antibody, V domains shown)
VH: EVQLQQSGPELVKPGASVKISCKASGYSFTGYYMHWVKQSPEKRLEWIGEINPRTGITTYNQKFKAKATLTVDKSSSTAYMQLKSLTSEDSAVYYCARVGSSGPFTYWGQGTLVTVSA
VL: DIVMTQSPSSLSVSAGDKVTMSCKSSQSLLNSRNQKNYLAWYQQKPWQPPKLLIYGASTRESGVPDRFTGSGSGTDFTLTISSVQAEDLAVYYCQNDYSYPFTFGTGTKLEIK
modifications: antibody labeled with an average of 2.4 saporin molecules; sites not stated
EC50 of cell death induction, ES-2 cells (WST-8) [6]: 0.09 nM
EC50 of cell death induction, MCAS cells (WST-8) [6]: 0.86 nM
EC50 of cell death induction, SKM-1 cells (WST-8) [6]: 0.02 nM
EC50 of cell death induction, THP-1 cells (WST-8) [6]: 0.01 nM
EC50 of cell death induction, U937 cells (WST-8) [6]: 0.33 nM
